We go through 15 molecules from patent US20130012436A1 (Bristol-Myers Squibb, published 2013).

One assay concerns the target T1, rhesus serum albumin (rhesus, UniProt Q28522 17-600).
T1 construct: also called RhSA
Nature of the assay: SPR (Biacore), albumin captured on CM5 chip, SABA flowed. As to the method: (§1) The kinetics of selected SABA clones purified from HTPP and/or midscaled material were determined by capturing the respective serum albumin (HSA/RhSA/MuSA) on the surface of a Biasensor CM5 chip and flowing a concentration series of SABAs over both the reference flow cell and the captured albumins. In addition, binding to albumin was carried out under various pH conditions ranging from pH 5.5 to pH 7.4. […] SABA1.1 fits biochemical criteria for pH resistance and affinity/kinetics down to pH 5.5. […]
In general terms: SPR reads the build-up and loss of mass on a sensor chip optically.

For another assay, the target named is T2, human serum albumin (human, UniProt P02768 25-609).
T2 construct: also called HSA
Described as above. As to the method:
as §1

For another assay, the target named is T3, murine serum albumin (mouse, UniProt P07724 25-608).
T3 construct: also called MuSA; mouse serum albumin
Nature of the assay: SPR, albumin captured on CM5 chip. How it is done:
The kinetics of selected SABA clones purified from HTPP and/or midscaled material were determined by capturing the respective serum albumin (HSA/RhSA/MuSA) on the surface of a Biasensor CM5 chip and flowing a concentration series of SABAs over both the reference flow cell and the captured albumins. In addition, binding to albumin was carried out under various pH conditions ranging from pH 5.5 to pH 7.4. […] SABA1.1 fits biochemical criteria for pH resistance and affinity/kinetics down to pH 5.5.

Assay [1] concerns the target T4, human IL-23 (human, UniProt Q9NPF7 20-189; P29460 23-328).
T4 construct: also called hIL-23; human recombinant IL-23
T4 sequence (looked up) 1: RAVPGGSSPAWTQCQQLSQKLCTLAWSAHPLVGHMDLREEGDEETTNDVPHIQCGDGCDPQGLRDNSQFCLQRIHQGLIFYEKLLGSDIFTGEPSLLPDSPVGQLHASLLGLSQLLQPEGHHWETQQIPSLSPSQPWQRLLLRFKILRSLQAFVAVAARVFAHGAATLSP
T4 sequence (looked up) 2: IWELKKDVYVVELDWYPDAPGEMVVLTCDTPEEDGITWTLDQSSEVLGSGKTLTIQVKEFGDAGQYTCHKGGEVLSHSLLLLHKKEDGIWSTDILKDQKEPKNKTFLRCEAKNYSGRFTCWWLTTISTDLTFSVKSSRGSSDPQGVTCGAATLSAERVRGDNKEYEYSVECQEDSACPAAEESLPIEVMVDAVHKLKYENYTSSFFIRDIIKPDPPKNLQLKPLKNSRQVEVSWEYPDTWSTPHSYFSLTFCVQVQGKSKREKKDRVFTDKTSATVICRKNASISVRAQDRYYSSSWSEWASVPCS
As to the kind of experiment: SPR (ProteOn XPR), human IL-23 directly immobilized, 25 C. As to the method:
The binding characteristics were characterized by Surface Plasmon Resonance (SPR). Human IL-23 was immobilized at two to four levels in one dimension of a ProteOn XPR (Bio-Rad) chip surfaces and exposed to 6 different concentrations of anti-IL-23 adnectins in the other dimension of the same SPR chip surface. This allowed kinetic determination in the absence of regeneration. Duplicate chips were used for kinetic determinations at 25° C. and 37° C. Evaluation of the kinetic parameters was performed using the Langmuir interaction model and constant parameter fitting with the ProteOn Manager software.
Even at 37° C. the off rates were close to the limit of detection for SPR technologies so it is possible that the reported dissociation constant measurements are under-estimates.

Assay [2] has as its target T4, human IL-23. As to the kind of experiment: cell-based or functional assay.
The target in assay [3] is T4, human IL-23. Nature of the assay: SPR, Adnectin captured by anti-His mAb, IL-23 injected. How it is done: All surface plasmon experiments were conducted in HBS-EP (10 mM Hepes 150 mM NaCl 3 mM EDTA 0.05% Surfactant P20) at 25° C. IL-23 was injected over anti-His mAb captured Adnectins for 2 minutes followed by a 10 minute dissociation phase. Evaluation of the binding specificity was completed using Biacore T100 evaluation software. Additional detailed methods are described in Example 4.

Assay [4] addresses T4, human IL-23. As to the kind of experiment: cell-based or functional assay. This is another data set of the same source.

T1 sequence (Q28522 17-600 limits assumed): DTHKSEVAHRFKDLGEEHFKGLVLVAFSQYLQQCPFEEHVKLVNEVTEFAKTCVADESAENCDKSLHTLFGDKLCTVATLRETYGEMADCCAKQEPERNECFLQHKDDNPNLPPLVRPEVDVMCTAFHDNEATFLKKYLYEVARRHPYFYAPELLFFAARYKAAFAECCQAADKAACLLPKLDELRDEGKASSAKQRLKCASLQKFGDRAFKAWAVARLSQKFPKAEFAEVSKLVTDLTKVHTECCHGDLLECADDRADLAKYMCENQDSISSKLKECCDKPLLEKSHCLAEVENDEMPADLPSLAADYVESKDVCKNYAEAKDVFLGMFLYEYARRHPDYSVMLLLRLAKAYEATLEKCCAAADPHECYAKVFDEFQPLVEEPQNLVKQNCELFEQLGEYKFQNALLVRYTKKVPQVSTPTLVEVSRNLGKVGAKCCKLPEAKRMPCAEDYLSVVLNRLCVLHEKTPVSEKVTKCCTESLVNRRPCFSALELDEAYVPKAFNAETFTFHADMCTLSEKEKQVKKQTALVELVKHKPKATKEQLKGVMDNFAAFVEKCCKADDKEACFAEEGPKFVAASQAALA
T2 sequence (P02768 25-609 limits assumed): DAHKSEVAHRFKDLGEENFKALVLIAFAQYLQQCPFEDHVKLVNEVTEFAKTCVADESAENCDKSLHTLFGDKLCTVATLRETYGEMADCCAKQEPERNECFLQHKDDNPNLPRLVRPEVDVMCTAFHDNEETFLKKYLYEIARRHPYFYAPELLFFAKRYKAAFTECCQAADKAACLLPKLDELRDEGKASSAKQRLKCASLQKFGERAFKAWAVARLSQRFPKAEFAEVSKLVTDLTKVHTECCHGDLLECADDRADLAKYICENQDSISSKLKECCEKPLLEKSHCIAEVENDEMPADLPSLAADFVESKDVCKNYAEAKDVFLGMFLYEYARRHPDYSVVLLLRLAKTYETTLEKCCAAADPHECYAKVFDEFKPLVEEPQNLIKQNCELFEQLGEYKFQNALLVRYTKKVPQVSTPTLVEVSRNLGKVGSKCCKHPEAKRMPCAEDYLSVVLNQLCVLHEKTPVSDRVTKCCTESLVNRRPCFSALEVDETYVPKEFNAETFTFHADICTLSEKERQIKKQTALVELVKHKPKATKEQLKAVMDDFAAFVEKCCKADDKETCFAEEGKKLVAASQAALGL

B1: SABA1.1 (designed binder)
chain: MGVSDVPRDLEVVAATPTSLLISWHSYYEQNSYYRITYGETGGNSPVQEFTVPYSQTTATISGLKPGVDYTITVYAVYGSKYYYPISINYRTEIDKPSQHHHHHH
As for B1, in the assay with rhesus serum albumin, the Kd (as a rule, the concentration at which binding is half-saturated) turned out to be 778 nM and the koff (usually the first-order rate constant of dissociation) was 0.00545 s⁻¹. In the assay with human serum albumin, this molecule gave a Kd of 47.2 nM and a koff of 0.000457 s⁻¹. The binding result with murine serum albumin is on record as “no binding”.

B2: ATI000934 (designed binder)
chain: MGVSDVPRDLEVVAATPTSLLISWGHYPLHLRYYRITYGETGGNSPVQEFTVPRTKYTATISGLKPGVDYTITVYAVTYYKEADYSQIPISINYRTEIDKPCQ
modifications: pegylated at the C-terminal EIDKPCQ (Cys)
notes: also called ATI 934; not shown: his-tag
In the case of B2, in the assay with human IL-23 [1], binding was characterised by a dissociation constant (Kd) of 1.9 nM, the koff stood at 1.8e-05 s⁻¹ and the kon (usually the rate constant with which the complex forms) stood at 9400 M⁻¹ s⁻¹.

B3: SABA2.1 (designed binder)
chain: MGVSDVPRDLEVVAATPTSLLISWPKYDKTGHYYRITYGETGGNSPVQEFTVPTRQTTATISGLKPGVDYTITVYAVSKDDYYPHEHRPISINYRTEIDKPSQHHHHHH
In the assay with rhesus serum albumin, B3 had a Kd of 63.6 nM and a koff of 0.000442 s⁻¹. Moreover, in the assay with human serum albumin, binding was characterised by a dissociation constant (Kd) of 33.8 nM and the koff stood at 0.000171 s⁻¹. The binding result with murine serum albumin is recorded as “no binding”.

B4: 1490B03 (designed binder)
chain: MGVSDVPRDLEVVAATPTSLLISWGHYPLHVRYYRITYGETGGNSPVQEFTVPSRKYTATISGLKPGVDYTITVYAVTYYKEANYREIPISINYRTEIDKPSQHHHHHH
notes: captured by anti-His mAb
With B4, the “Kit 225 pSTAT3 IC50 (nM)” value with human IL-23 [2] came out at 0.3 nM. For the same molecule, in the assay with human IL-23 [3], the kon was determined as 153000 M⁻¹ s⁻¹. Also, in the assay with human IL-23 [4], the “IL-17 EC50” value is 1.4 nM, the “IL-22 EC50” value turned out to be 1.7 nM and the “PBMNC pSTAT3 IC50 (nM)” value stood at 0.09 nM.

B5: 1572C09 (designed binder)
chain: MGVSDVPRDLEVVAATPTSLLISWGHYPMHIRYYRITYGETGGNSPVQEFTVPTPKHTATISGLKPGVDYTITVYAVTYYNEADYSQIPISINYRTEIDKPSQHHHHHH
notes: captured by anti-His mAb
As to B5, the “Kit 225 pSTAT3 IC50 (nM)” value in the assay with human IL-23 [2] worked out at 0.5 nM. The molecule also came in with a kon in the assay with human IL-23 [3] of 60700 M⁻¹ s⁻¹. In the assay with human IL-23 [4], the “IL-17 EC50” value was 7.9 nM and the “IL-22 EC50” value amounted to 5.3 nM.

B6: 1571G06 (designed binder)
chain: MGVSDVPRDLEVVAATPTSLLISWGHYPLHLRYYRITYGETGGNSPVQEFTVPRTKYTATISGLKPGVDYTITVYAVTYYKEADYSQIPISINYRTEIDKPSQHHHHHH
notes: captured by anti-His mAb
Consider B6, for which the “Kit 225 pSTAT3 IC50 (nM)” value in the assay with human IL-23 [2] worked out at 0.3 nM. Further, in the assay with human IL-23 [3], the affinity, expressed as Kd, was 1.81 nM; the koff came out at 0.000238 s⁻¹; the kon is 131000 M⁻¹ s⁻¹. Moreover, in the assay with human IL-23 [4], the “IL-17 EC50” value turned out to be 3.5 nM, the “IL-22 EC50” value stood at 5.1 nM and the “PBMNC pSTAT3 IC50 (nM)” value was found to be 0.93 nM.

B7: 1571G04 (designed binder)
chain: MGVSDVPRDLEVVAATPTSLLISWGHYPLHVRYYRITYGETGGNSPVQEFTVPPRSHTATISGLKPGVDYTITVYAVTYYAQENYKEIPISINYRTEIDKPSQHHHHHH
notes: captured by anti-His mAb
As to B7, in the assay with human IL-23 [2], the “Kit 225 pSTAT3 IC50 (nM)” value was 0.1 nM. In the assay with human IL-23 [1], this molecule had a Kd of 0.2 nM, a koff of 1.2e-05 s⁻¹ and a kon of 57000 M⁻¹ s⁻¹. For the same molecule, in the assay with human IL-23 [3], binding was characterised by a dissociation constant (Kd) of 2.1 nM, the koff stood at 0.000361 s⁻¹ and the kon was 170000 M⁻¹ s⁻¹. Moreover, in the assay with human IL-23 [4], the “IL-17 EC50” value was 1.4 nM, the “IL-22 EC50” value amounted to 1.3 nM and the “PBMNC pSTAT3 IC50 (nM)” value is 0.23 nM.

B8: 1572H05 (designed binder)
chain: MGVSDVPRDLEVVAATPTSLLISWGHYPLHIRYYRITYGETGGNSPVQEFTVPRSKYTATISGLKPGVDYTITVYAVTYYEQVEYREIPISINYRTEIDKPSQHHHHHH
notes: captured by anti-His mAb
Take B8: the “Kit 225 pSTAT3 IC50 (nM)” value with human IL-23 [2] was determined as 0.01 nM. Further, in the assay with human IL-23 [3], the Kd stood at 0.61 nM, the off-rate (koff) came out at 0.00023 s⁻¹ and the kon turned out to be 375000 M⁻¹ s⁻¹.

B9: 1571H03 (designed binder)
chain: MGVSDVPRDLEVVAATPTSLLISWGHYPLHVRYYRITYGETGGNSPVQEFTVPNRVYTATISGLKPGVDYTITVYAVTYYAQEEYHIIPISINYRTEIDKPSQHHHHHH
notes: captured by anti-His mAb
For B9, the “Kit 225 pSTAT3 IC50 (nM)” value with human IL-23 [2] worked out at 0.4 nM. In the assay with human IL-23 [3], this molecule showed a Kd of 3.4 nM, a koff of 0.000395 s⁻¹ and a kon of 118000 M⁻¹ s⁻¹. In the assay with human IL-23 [4], the “IL-17 EC50” value is 2.9 nM and the “IL-22 EC50” value was found to be 2.3 nM.

B10: 1490H05 (designed binder)
chain: MGVSDVPRDLEVVAATPTSLLISWGHYPLHVRYYRITYGETGGNSPVQEFTVPMRQHTATISGLKPGVDYTITVYAVTYYAQENYKEIPISINYRTEIDKPSQHHHHHH
notes: captured by anti-His mAb
Turning to B10, in the assay with human IL-23 [2], the “Kit 225 pSTAT3 IC50 (nM)” value came to 0.4 nM. In the assay with human IL-23 [3], this molecule returned a Kd of 2.1 nM, a koff of 0.000322 s⁻¹ and a kon of 156000 M⁻¹ s⁻¹. For the same molecule, in the assay with human IL-23 [4], the “IL-17 EC50” value stood at 1.8 nM and the “IL-22 EC50” value was 2.9 nM.

B11: 1572G06 (designed binder)
chain: MGVSDVPRDLEVVAATPTSLLISWGHYPLHVRYYRITYGETGGNSPVQEFTVPRYKYTATISGLKPGVDYTITVYAVTYYAQENYKEIPISINYRTEIDKPSQHHHHHH
notes: captured by anti-His mAb
As for B11, the “Kit 225 pSTAT3 IC50 (nM)” value with human IL-23 [2] is 0.05 nM. In addition, the kon in the assay with human IL-23 [3] was determined as 105000 M⁻¹ s⁻¹. Further, in the assay with human IL-23 [4], the “IL-17 EC50” value was 1.6 nM, the “IL-22 EC50” value turned out to be 1.9 nM and the “PBMNC pSTAT3 IC50 (nM)” value was found to be 0.21 nM.

B12: 1550 E06 (designed binder)
chain: MGVSDVPRDLEVVAATPTSLLISWGHYPMHVRYYRITYGETGGNSPVQEFTVPPPRHTATISGLKPGVDYTITVYAVTYYAQENYKEIPISINYRTEIDKPSQHHHHHH
notes: captured by anti-His mAb
B12: the “Kit 225 pSTAT3 IC50 (nM)” value with human IL-23 [2] turned out to be 0.4 nM. In the assay with human IL-23 [3], this molecule gave a Kd of 2.1 nM, a koff of 0.000116 s⁻¹ and a kon of 55400 M⁻¹ s⁻¹. In the assay with human IL-23 [4], the “IL-17 EC50” value is 1.5 nM, the “IL-22 EC50” value worked out at 2.1 nM and the “PBMNC pSTAT3 IC50 (nM)” value was 1.15 nM.

B13: SABA4.1 (designed binder)
chain: MGVSDVPRDLEMVAATPTSLLISWEDDSYYSRYYRITYGETGGNSPVQEFTVPSDLYTATISGLKPGVDYTITVYAVTYDVTDLIMHEPISINYRTEIDKPSQHHHHHH
On to B13, for which, in the assay with rhesus serum albumin, the Kd was > 1000 nM and the koff worked out at 0.00383 s⁻¹. In the assay with human serum albumin, this molecule showed a Kd of 412 nM and a koff of 0.000782 s⁻¹. In the assay with murine serum albumin, the binding result was “no binding”.

B14: ATI001014 (designed binder)
chain: MGVSDVPRDLEVVAATPTSLLISWGHYPLHVRYYRITYGETGGNSPVQEFTVPPRSHTATISGLKPGVDYTITVYAVTYYAQENYKEIPISINYRTGSGC
modifications: pegylated at the C-terminal GSGC linker (Cys)
notes: not shown: his-tag
Consider B14, for which, in the assay with human IL-23 [1], binding was characterised by a dissociation constant (Kd) of 1.8 nM, the koff came out at 1.7e-05 s⁻¹ and the kon was 9400 M⁻¹ s⁻¹.

B15: SABA3.1 (designed binder)
chain: MGVSDVPRDLEVVAATPTSLLISWSNDGPGLSYYRITYGETGGNSPVQEFTVPSSQTTATISGLKPGVDYTITVYAVSYYTKKAYSAGPISINYRTEIDKPSQHHHHHH
Take B15: the dissociation constant (Kd) was 431 nM with rhesus serum albumin and 863 nM with human serum albumin. Besides, the koff with rhesus serum albumin came to 0.0337 s⁻¹; with human serum albumin it was 0.0682 s⁻¹. Also, the binding result with murine serum albumin is recorded as “no binding”.
